Experimental data from US20220177560A1.

Assays:
human FcRn (human) = human FcRn (human) (UniProt P55899); experiment: FcRn binding affinity; method not described; average of 5-6 replicates
[1] = biological target: cynomolgus FcRn (cynomolgus) (UniProt Q8SPV9); experiment: as above
[2] = biological target: HU-3pE-beta-Amyloid (human); experiment: SPR; HU-3pE-beta-Amyloid 0.6 to 4.5 nM

Chain of cynomolgus FcRn (cynomolgus) (Q8SPV9 24-297 limits assumed, chain 1 of 2): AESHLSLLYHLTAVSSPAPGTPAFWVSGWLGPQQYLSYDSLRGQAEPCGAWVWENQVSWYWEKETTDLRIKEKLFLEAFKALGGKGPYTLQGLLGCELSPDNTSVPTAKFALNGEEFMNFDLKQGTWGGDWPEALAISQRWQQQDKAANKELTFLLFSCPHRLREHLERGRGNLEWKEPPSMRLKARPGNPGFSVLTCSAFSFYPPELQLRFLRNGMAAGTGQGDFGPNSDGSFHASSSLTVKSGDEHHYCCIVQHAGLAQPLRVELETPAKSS
Chain of cynomolgus FcRn (cynomolgus) (Q8SPW0 21-119 limits assumed, chain 2 of 2, further chain): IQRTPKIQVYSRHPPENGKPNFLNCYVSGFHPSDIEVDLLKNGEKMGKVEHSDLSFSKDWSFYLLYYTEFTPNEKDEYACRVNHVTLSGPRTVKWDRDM

Row | Kd (human FcRn (human)) [nM] | Kd [1] [nM] | Kd [2] [nM] | koff [2] [s⁻¹] | kon [2] [M⁻¹ s⁻¹] | Substance
1 | 443 | 430 |  |  |  | IgG1 control (antibody)
2 |  |  | 0.0379 | 0.000156 | 4.11e+06 | Control mAb (antibody)
